Experimental data: patent US20240002547A1, “T[…]-TARGETING CONSTRUCTS AND USES THEREOF” (AEBI LTD., priority 2016, published 2024)

Biological target: human EGFR on A431 and MCF-7 cells (human), P00533
Assay: cell-based or functional assay

B1: E13.3 (peptide)
peptide: CHPGDKQEDPNCLQADK
modifications: not checked
- IC50 of inhibition of EGFR autophosphorylation in A431 cells: 2000 nM
- Normalized Percent of EGFR autophosphorylation inhibition: 99.4%
